From patent US20250361322A1 (ICONIC THERAPEUTICS, published 2025)
Read-outs that look alike come from different tables or passages of the source.

Tests used:
[1] = target: T1, cynomolgus monkey TF ECD-His6 (cynomolgus monkey (Macaca fascicularis)); test: SPR (Biacore), TF-His over coupled antibody
T1 construct: Expi293-derived; also called TF-His; cTF
T1 chain: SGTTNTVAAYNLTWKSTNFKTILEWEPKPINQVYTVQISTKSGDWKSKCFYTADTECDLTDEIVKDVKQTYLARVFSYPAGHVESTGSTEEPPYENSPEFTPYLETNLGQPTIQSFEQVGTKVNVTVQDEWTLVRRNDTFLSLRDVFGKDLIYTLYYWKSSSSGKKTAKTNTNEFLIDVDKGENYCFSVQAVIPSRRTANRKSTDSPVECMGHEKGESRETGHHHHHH

[2] = target: T2, human TF ECD-His6 (human, UniProt P13726 33-251); test: SPR (Biacore), TF-His over coupled antibody
T2 construct: Expi293-derived; Biacore used TF-His; also called TF-His; hTF

[3] = target: T1, cynomolgus monkey TF ECD-His6; test: BLI (ForteBio Octet)
[4] = target: T2, human TF ECD-His6; test: BLI (ForteBio Octet)
[5] = target: T3, rTF (rat TF) construct on HEK293 cells (rat, UniProt P42533 29-252); test: live cell staining, HEK293 cells
T3 construct: not shown: transmembrane/cytoplasmic anchor of the cell-surface construct
T3 sequence (P42533 29-252 limits assumed): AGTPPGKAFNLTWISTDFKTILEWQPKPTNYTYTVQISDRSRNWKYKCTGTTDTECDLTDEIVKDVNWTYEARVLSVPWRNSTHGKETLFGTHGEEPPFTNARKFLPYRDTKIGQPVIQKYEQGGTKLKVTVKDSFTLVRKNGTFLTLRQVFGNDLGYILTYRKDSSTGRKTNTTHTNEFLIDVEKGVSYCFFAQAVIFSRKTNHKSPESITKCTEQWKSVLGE

[6] = target: T4, human Tissue Factor on human TF-positive cells (human, UniProt P13726 33-295); test: flow cytometry, titration of unconjugated antibody on HCT-116 cells (human TF), 4-parameter fit of MFI
T4 construct: also called hTF; CD142

[7] = target: T4, human Tissue Factor on human …; test: competition flow cytometry on MDA-MB-231 cells: antibody titration first, then 20 nM FVII-Fc-Alexa488 as the blocked ligand
[8] = target: T4, human Tissue Factor on human …; test: flow cytometry, antibody titration on HCT-116 cells (endogenous human TF), 4-parameter fit of MFI
[9] = target: T5, full-length mouse TF with a C-terminal FLAG tag on Flp-In-CHO cells (mouse, UniProt P20352 29-294); test: flow cytometry on CHO cells expressing mouse TF, MFI at 250 nM antibody
T5 construct: also called CHO-mTF; mouse TF-positive CHO cells

[10] = target: T5, full-length mouse TF with a C-terminal …; test: flow cytometry, antibody titration on CHO cells expressing mouse TF
[11] = target: T6, Relipidated TF (UniProt P13726 33-295, limits assumed); test: cell-based or functional assay
[12] = target: T4, human Tissue Factor on human …; test: competition flow cytometry on MDA-MB-231 cells: unlabeled antibody titration first, then 20 nM 39A-Alexa488 as the competitor
[13] = target: T4, human Tissue Factor on human …; test: flow cytometry, antibody titration on MDA-MB-231 cells (human TF), 4-parameter fit of MFI
[14] = target: T4, human Tissue Factor on human …; test: flow cytometry, antibody titration on A431 cells (human TF), 4-parameter fit of MFI
[15] = target: T7, mouse TF ECD-His6 (mouse, UniProt P20352 29-251); test: BLI (ForteBio Octet)
T7 construct: Expi293-derived; also called TF-His; mTF

[16] = target: T5, full-length mouse TF with a C-terminal …; test: flow cytometry on CHO cells expressing mouse TF, MFI at 250 nM antibody; remark: listed apart in the source
Protocol: (§1) After 2 washes, dead cells were labeled with TO-PRO-3 Iodide (ThermoFisher Scientific) and samples were analyzed on a CytoFLEX flow cytometer (Beckman Coulter, Brea, CA, USA) or Novocyte flow cytometer (ACEA Biosciences, San Diego, CA, USA). The median fluorescence intensities (MFIs) at each dilution were plotted and cell EC₅₀'s were derived using a 4-parameter binding model in Prism (GraphPad, La Jolla, CA, USA).

[17] = target: T5, full-length mouse TF with a C-terminal …; test: flow cytometry, antibody titration on CHO cells expressing mouse TF, 4-parameter fit of MFI
Protocol: as §1

[18] = target: T4, human Tissue Factor on human …; test: flow cytometry, antibody titration on HCT-116 cells (endogenous human TF), 4-parameter fit of MFI; remark: listed apart in the source
Protocol: as §1

[19] = target: T6, Relipidated TF; test: cell-based or functional assay; remark: listed apart in the source
[20] = target: T5, full-length mouse TF with a C-terminal …; test: flow cytometry, antibody titration on CHO cells expressing mouse TF, 4-parameter fit of MFI; remark: listed apart in the source
Protocol: as §1

B1: 29E (antibody, human IgG1, V domains shown)
VH: QVQLVESGGGVVQPGRSLRLSCAASGFTFRSYGMHWVRQAPGKGLEWVAVITYDGINKYYADSVEGRFTISRDNSKNTLYLQMNSLRAEDTAVYYCARDGVYYGVYDYWGQGTLVTVSS
VL: not shown
notes: Human IgG1; also called antibody designated 29E
[1]
  Kd: 5.06 nM
[2]
  Kd: 0.47 nM
[3]
  Kd: 15 nM
[4]
  Kd: 2.32 nM
[5]
  binding result: no binding
[6]
  EC50: 0.23 nM
[7]
  IC50 (read off the curve): ~2 nM
[8]
  EC50: 0.152 nM
[9]
  MFI at 250 nM: 5100
[10]
  binding result: no binding (tested: 250 nM)
[11]
  % ETP at 10 nM Ab (TGA with 10 min antibody pre-incubation): 73%
  % ETP at 50 nM Ab (TGA with 10 min antibody pre-incubation): 68%
  % ETP at 100 nM Ab (TGA with 10 min antibody pre-incubation): 64%
  % Peak IIa at 10 nM Ab (TGA with 10 min antibody pre-incubation): 30%
  % Peak IIa at 50 nM Ab (TGA with 10 min antibody pre-incubation): 27%
  % Peak IIa at 100 nM Ab (TGA with 10 min antibody pre-incubation): 26%
  ETP at 10 nM Ab (TGA with 10 min antibody pre-incubation): 1250 nM·min
  ETP at 50 nM Ab (TGA with 10 min antibody pre-incubation): 1170 nM·min
  ETP at 100 nM Ab (TGA with 10 min antibody pre-incubation): 1100 nM·min
  Lag Time at 10 nM Ab (TGA with 10 min antibody pre-incubation): 10.4 min
  Lag Time at 50 nM Ab (TGA with 10 min antibody pre-incubation): 14.2 min
  Lag Time at 100 nM Ab (TGA with 10 min antibody pre-incubation): 15.1 min
  Peak IIa at 10 nM Ab (TGA with 10 min antibody pre-incubation): 78 nM
  Peak IIa at 50 nM Ab (TGA with 10 min antibody pre-incubation): 70 nM
  Peak IIa at 100 nM Ab (TGA with 10 min antibody pre-incubation): 68 nM
  ttPeak at 10 nM Ab (TGA with 10 min antibody pre-incubation): 20.2 min
  ttPeak at 50 nM Ab (TGA with 10 min antibody pre-incubation): 24.3 min
  ttPeak at 100 nM Ab (TGA with 10 min antibody pre-incubation): 25.3 min
[12]
  IC50: 1.15 nM
[13]
  EC50: 0.26 nM
[14]
  EC50: 0.68 nM

B2: 43B1 (antibody, human IgG1, V domains shown)
VH: QVQLQESGPGLVKPSQTLSLTCTVSGGSISSGQYWSWIRQHPGKGLEWIGEIYYSGSTRYNPSLKSRVTISVDTSKNQFSLKLSSVTAADTAVYYCARDAPYYYGGGYYYYMDVWGKGTTVTVSS
VL: EIVLTQSPGTLSLSPGERATLSCRASESVDSSYLAWYQQKPGQAPRLLIYGASTRQTGIPDRFSGSGSGTDFTLTISRLEPEDFAVYYCQQAGVVPYTFGGGTKVEIK
notes: Human IgG1; also called antibody designated 43B1
[15]
  Kd: 72.1 nM
[16]
  MFI at 250 nM: 5.3e+06
[17]
  EC50: 255 nM

B3: 43D (antibody, human IgG1, V domains shown)
VH: QVQLQQWGAGLLKPSETLSLTCAVYGGSLSGYYWSWIRQPPGKGLEWIGEIGASGSTRYNPSLKSRVTISVDTSKNQFSLKLSSVTAADTAVYYCARDTPYYYEGGYYYYMDVWGKGTTVTVSS
VL: EIVLTQSPGTLSLSPGERATLSCRASQSVSSSYLAWYQQKPGQAPRLLIYGASSRATGIPDRFSGSGSGTDFTLTISRLEPEDFAVYYCQQVGVVPYTFGGGTKVEIK
notes: Human IgG1; also called antibody designated 43D
[1]
  Kd: 5.66 nM
[2]
  Kd: 2.09 nM
[15]
  Kd: 281 nM
[3]
  Kd: 4.12 nM
[4]
  Kd: 3.84 nM
[16]
  MFI at 250 nM: 1.3e+07
[17]
  EC50: 2.9 nM
[18]
  EC50: 0.147 nM

B4: 43B7 (antibody, human IgG1, V domains shown)
VH: QVQLQESGPGLVKPSQTLSLTCTVSGGSISSGQYWSWIRQHPGKGLEWIGEIYYSGSTRYNPSLKSRVTISVDTSKNQFSLKLSSVTAADTAVYYCARDAPYYYGGGYYYYMDVWGKGTTVTVSS
VL: EIVLTQSPGTLSLSPGERATLSCRASESVDSSYLAWYQQKPGQAPRLLIYGADSRATGIPDRFSGSGSGTDFTLTISRLEPEDFAVYYCQQDGVVPYTFGGGTKVEIK
notes: Human IgG1; also called antibody designated 43B7
[1]
  Kd: 0.24 nM
[2]
  Kd: 0.14 nM
[15]
  Kd: 360 nM
[3]
  Kd: 0.94 nM
[4]
  Kd: 0.86 nM
[16]
  MFI at 250 nM: 800000
[18]
  EC50: 0.255 nM

B5: 1F (antibody, human IgG1, V domains shown)
VH: EVQLLESGGGLVQPGGSLRLSCAASGFTFSDYAMGWVRQAPGKGLEWVSTISGSGGLTYYADSVKGRFTISRDNSKNTLYLQMNSLRAEDTAVYYCAKAPYGYYMDVWGKGTTVTVSS
VL: not shown
notes: Human IgG1; also called antibody designated 1F
[1]
  Kd: 0.26 nM
[2]
  Kd: 0.31 nM
[3]
  Kd: 1.43 nM
[4]
  Kd: 1.28 nM
[5]
  binding result: no binding
[7]
  IC50 (read off the curve): ~1 nM
[19]
  % ETP at 10 nM Ab (TGA without antibody pre-incubation): 58%
  % Peak IIa at 10 nM Ab (TGA without antibody pre-incubation): 21%
  % Peak IIa at 50 nM Ab (TGA without antibody pre-incubation): 8%
  % Peak IIa at 100 nM Ab (TGA without antibody pre-incubation): 7%
  ETP at 10 nM Ab (TGA without antibody pre-incubation): 1400 nM·min
  Lag Time at 10 nM Ab (TGA without antibody pre-incubation): 12.1 min
  Lag Time at 50 nM Ab (TGA without antibody pre-incubation): 27.2 min
  Lag Time at 100 nM Ab (TGA without antibody pre-incubation): 25.9 min
  Peak IIa at 10 nM Ab (TGA without antibody pre-incubation): 83 nM
  Peak IIa at 50 nM Ab (TGA without antibody pre-incubation): 32 nM
  Peak IIa at 100 nM Ab (TGA without antibody pre-incubation): 29 nM
  ttPeak at 10 nM Ab (TGA without antibody pre-incubation): 19.8 min
  ttPeak at 50 nM Ab (TGA without antibody pre-incubation): 36.8 min
  ttPeak at 100 nM Ab (TGA without antibody pre-incubation): 37.9 min
[8]
  EC50: 0.05 nM
[9]
  MFI at 250 nM: 4200
[10]
  binding result: no binding (tested: 250 nM)
[11]
  % ETP at 10 nM Ab (TGA with 10 min antibody pre-incubation): 31%
  % Peak IIa at 10 nM Ab (TGA with 10 min antibody pre-incubation): 10%
  % Peak IIa at 50 nM Ab (TGA with 10 min antibody pre-incubation): 7%
  % Peak IIa at 100 nM Ab (TGA with 10 min antibody pre-incubation): 7%
  ETP at 10 nM Ab (TGA with 10 min antibody pre-incubation): 540 nM·min
  Lag Time at 10 nM Ab (TGA with 10 min antibody pre-incubation): 18.8 min
  Lag Time at 50 nM Ab (TGA with 10 min antibody pre-incubation): 27.6 min
  Lag Time at 100 nM Ab (TGA with 10 min antibody pre-incubation): 30.3 min
  Peak IIa at 10 nM Ab (TGA with 10 min antibody pre-incubation): 27 nM
  Peak IIa at 50 nM Ab (TGA with 10 min antibody pre-incubation): 20 nM
  Peak IIa at 100 nM Ab (TGA with 10 min antibody pre-incubation): 17 nM
  ttPeak at 10 nM Ab (TGA with 10 min antibody pre-incubation): 28.6 min
  ttPeak at 50 nM Ab (TGA with 10 min antibody pre-incubation): 38.9 min
  ttPeak at 100 nM Ab (TGA with 10 min antibody pre-incubation): 42 min
[12]
  IC50: 0.65 nM
[14]
  EC50: 0.49 nM

B6: 25A5 (antibody, human IgG1, V domains shown)
VH: QVQLVQSGAEVKKPGASVKVSCKASGYTFDVYGISWVRQAPGQGLEWMGWIAPYSGNTNYAQKLQGRVTMTTDTSTSTAYMELRSLRSDDTAVYYCARDAGTYSPFGYGMDVWGQGTTVTVSS
VL: DIQMTQSPSTLSASVGDRVTITCRASESISNWLAWYQQKPGKAPKLLIYKAYSLEYGVPSRFSGSGSGTEFTLTISSLQPDDFATYYCQQFQKLPPFTFGGGTKVEIK
notes: Human IgG1; also called antibody designated 25A5
[1]
  Kd: 0.04 nM
[2]
  Kd: 0.08 nM
[15]
  Kd: 188 nM
[4]
  Kd: 0.64 nM
[8]
  EC50: 0.088 nM
[9]
  MFI at 250 nM: 8e+06
[20]
  EC50: 11 nM

B7: 25G (antibody, human IgG1, V domains shown)
VH: QVQLVQSGAEVKKPGASVKVSCKASGYTFRSYGISWVRQAPGQGLEWMGWVAPYNGNTNYAQKLQGRVTMTTDTSTSTAYMELRSLRSDDTAVYYCARDAGTYSPYGYGMDVWGQGTTVTVSS
VL: DIQMTQSPSTLSASVGDRVTITCRASQSISSWLAWYQQKPGKAPKLLIYKASSLESGVPSRFSGSGSGTEFTLTISSLQPDDFATYYCQQFQSLPPFTFGGGTKVEIK
notes: Human IgG1; also called antibody designated 25G
[1]
  Kd: 18 nM
[2]
  Kd: 23 nM
[15]
  Kd: 114 nM
[3]
  Kd: 17.5 nM
[4]
  Kd: 21.9 nM
[8]
  EC50: 0.134 nM
[9]
  MFI at 250 nM: 1.6e+07
[20]
  EC50: 3.9 nM
